From patent publication US20230235005A1 (INHIBRX, published 2023) come the findings set out here.

Like-named read-outs stand apart in the source and are kept apart here.

Test [1] deals with T1, IL-2 receptor overexpressed on HEK-Blue IL-2 reporter cells (InvivoGen) (UniProt P01589 22-272; P14784 27-551; P31785 23-369, limits assumed).
T1 sequence (looked up) 1: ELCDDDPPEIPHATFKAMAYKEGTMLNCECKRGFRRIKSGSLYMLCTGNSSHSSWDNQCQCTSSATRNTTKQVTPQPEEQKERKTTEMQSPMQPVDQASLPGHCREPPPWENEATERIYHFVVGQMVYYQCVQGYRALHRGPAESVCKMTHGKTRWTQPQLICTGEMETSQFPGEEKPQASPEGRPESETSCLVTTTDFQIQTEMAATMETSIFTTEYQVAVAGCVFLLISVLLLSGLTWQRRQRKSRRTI
T1 sequence (looked up) 2: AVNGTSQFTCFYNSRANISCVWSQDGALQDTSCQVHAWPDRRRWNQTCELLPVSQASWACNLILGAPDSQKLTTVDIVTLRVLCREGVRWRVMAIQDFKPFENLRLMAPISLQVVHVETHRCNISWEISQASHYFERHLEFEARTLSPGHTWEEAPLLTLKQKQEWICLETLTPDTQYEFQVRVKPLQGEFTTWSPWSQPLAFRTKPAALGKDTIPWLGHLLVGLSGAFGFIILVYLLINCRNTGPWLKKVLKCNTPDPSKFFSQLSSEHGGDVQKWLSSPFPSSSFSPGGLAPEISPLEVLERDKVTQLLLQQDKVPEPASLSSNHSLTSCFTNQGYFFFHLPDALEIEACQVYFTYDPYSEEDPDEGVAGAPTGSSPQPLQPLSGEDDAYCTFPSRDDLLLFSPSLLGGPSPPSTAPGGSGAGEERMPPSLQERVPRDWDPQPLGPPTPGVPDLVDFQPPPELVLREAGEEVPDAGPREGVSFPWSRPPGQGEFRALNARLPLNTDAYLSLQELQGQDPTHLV
T1 sequence (looked up) 3: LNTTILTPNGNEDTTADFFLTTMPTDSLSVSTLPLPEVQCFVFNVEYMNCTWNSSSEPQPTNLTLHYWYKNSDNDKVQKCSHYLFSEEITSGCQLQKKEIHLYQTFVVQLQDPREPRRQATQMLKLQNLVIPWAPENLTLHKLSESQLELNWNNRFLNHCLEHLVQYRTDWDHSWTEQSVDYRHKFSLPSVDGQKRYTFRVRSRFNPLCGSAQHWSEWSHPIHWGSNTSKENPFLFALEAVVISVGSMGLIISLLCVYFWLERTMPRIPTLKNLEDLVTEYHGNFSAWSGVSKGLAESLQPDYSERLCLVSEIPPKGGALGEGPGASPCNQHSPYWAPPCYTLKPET
Nature of the test: cell-based or functional assay.

A further test addresses T2, Histidine-tagged CD25 (UniProt P01589 22-217, limits assumed).
T2 construct: Immobilized in Biolayer Interferometry (ForteBio); not shown: histidine tag
T2 sequence (looked up): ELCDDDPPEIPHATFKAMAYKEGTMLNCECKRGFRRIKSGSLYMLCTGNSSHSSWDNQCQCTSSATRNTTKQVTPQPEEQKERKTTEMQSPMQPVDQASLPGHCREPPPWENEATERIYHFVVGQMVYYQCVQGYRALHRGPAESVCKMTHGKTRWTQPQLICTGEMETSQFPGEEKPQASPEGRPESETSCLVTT
Briefly: Biolayer Interferometry (ForteBio), immobilized His-tagged CD25. As to the method:
Polypeptides comprising a modified IL-2 fused to the C-terminus of a PD-1 binding VHH and control polypeptides were tested for binding to CD25 using Biolayer Interferometry (ForteBio).
(In general: Biolayer interferometry detects binding as a change in optical thickness at a sensor tip.)

The target of test [2] is T3, PD-1 expressed on modified HEK-Blue IL-2 reporter cell clones (UniProt Q15116 25-288, limits assumed). Briefly: cell-based or functional assay.
T3 sequence (Q15116 25-288 limits assumed): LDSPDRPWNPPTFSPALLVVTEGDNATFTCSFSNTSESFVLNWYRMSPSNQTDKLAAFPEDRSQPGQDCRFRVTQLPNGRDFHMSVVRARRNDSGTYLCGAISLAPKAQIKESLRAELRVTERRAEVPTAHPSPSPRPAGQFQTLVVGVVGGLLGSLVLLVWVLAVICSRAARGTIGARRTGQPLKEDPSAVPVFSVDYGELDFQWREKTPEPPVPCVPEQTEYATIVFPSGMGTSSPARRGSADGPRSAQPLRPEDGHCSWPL
Test [3] addresses IL-2 receptor together with PD-1 on HEK-Blue IL-2 reporter cells expressing PD-1 (UniProt P01589). Nature of the test: cell-based or functional assay.
For test [4], the target named is trimeric IL-2 receptor on HEK-Blue IL-2 reporter cells (UniProt P01589). Nature of the test: cell-based or functional assay.
The target in test [5] is trimeric IL-2 receptor (CD25, CD122, CD132) on HEK-Blue IL-2 reporter cells (UniProt P01589). Briefly: cell-based or functional assay.
Test [6] deals with T1, IL-2 receptor overexpressed on HEK-Blue …. Briefly: cell-based or functional assay. This is another data set of the same source.
Test [7] has as its target T3, PD-1 expressed on modified HEK-Blue …. Briefly: cell-based or functional assay. This is another data set of the same source.
In test [8] the target is T1, IL-2 receptor overexpressed on HEK-Blue …. Nature of the test: cell-based or functional assay. The source holds these as a separate data set.
For test [9], the target named is T3, PD-1 expressed on modified HEK-Blue …. Briefly: cell-based or functional assay. The source holds these as a separate data set.
The target of test [10] is T1, IL-2 receptor overexpressed on HEK-Blue …. Nature of the test: cell-based or functional assay. The source holds these as a separate data set.
Test [11] has as its target T3, PD-1 expressed on modified HEK-Blue …. Nature of the test: cell-based or functional assay. The source holds these as a separate data set.
In test [12] the target is T1, IL-2 receptor overexpressed on HEK-Blue …. Nature of the test: cell-based or functional assay. This is another data set of the same source.
Test [13] addresses T3, PD-1 expressed on modified HEK-Blue …. Briefly: cell-based or functional assay. The source holds these as a separate data set.
Test [14] shares this target. Briefly: cell-based or functional assay. The source holds these as a separate data set.
The target in test [15] is T1, IL-2 receptor overexpressed on HEK-Blue …. Nature of the test: cell-based or functional assay. The source holds these as a separate data set.
The target in test [16] is T3, PD-1 expressed on modified HEK-Blue …. Nature of the test: cell-based or functional assay. This is another data set of the same source.
Test [17] concerns the target T1, IL-2 receptor overexpressed on HEK-Blue …. Briefly: cell-based or functional assay. This is another data set of the same source.

Chain of IL-2 receptor together with PD-1 on HEK-Blue IL-2 reporter cells expressing PD-1 (Q15116 25-288 limits assumed): as above

B1: polypeptide comprising modified IL-2 (T3A, H16A, Δ42, P65R, D84S, C125S) fused to the C-terminus of a PD-1-binding VHH (other, not shown: a dimerising Fc or GST; small tags and cut ends)
chain: APASSSTKKTQLQLEALLLDLQMILNGINNYKNPKLTRMLTKFYMPKKATELKHLQCLEEELKRLEEVLNLAQSKNFHLRPRSLISNINVIVLELKGSETTFMCEYADETATIVEFLNRWITFSQSIISTLT
notes: also called IL-2-T3A-H16A-ΔF42-P65R-D84S-C125S
Consider B1, for which, in [1], the “EC50 (nM), HEK-Blue IL-2 reporter cells lacking PD-1” value was 4.2 nM. In addition, in the test with Histidine-tagged CD25, the binding result was “no binding (tested: 300 nM)”. Besides, the “EC50 (nM), IL-2 reporter cells expressing PD-1” value in [2] was determined as 0.005 nM.

B2: polypeptide comprising modified IL-2 (T3A, H16A, E61R, P65R, D84S, C125S) fused to the C-terminus of a PD-1-binding VHH (other, not shown: a dimerising Fc or GST; small tags and cut ends)
chain: APASSSTKKTQLQLEALLLDLQMILNGINNYKNPKLTRMLTFKFYMPKKATELKHLQCLERELKRLEEVLNLAQSKNFHLRPRSLISNINVIVLELKGSETTFMCEYADETATIVEFLNRWITFSQSIISTLT
Turning to B2, in [3], the PD-1 Targeted EC50 was 2 pM and the PD-1 Window was determined as 1570. In test [4], the Non-targeted EC50 turned out to be 3180 pM. Also, the “EC50 (nM), HEK-Blue IL-2 reporter cells lacking PD-1” value in [1] was 3.2 nM. Further, the binding result with Histidine-tagged CD25 is “no binding (tested: 300 nM)”. The “EC50 (nM), IL-2 reporter cells expressing PD-1” value in [2] is 0.002 nM.

B3: polypeptide comprising modified IL-2 (T3A, H16A, E61R, P65R, D84Y, C125S) fused to the C-terminus of a CD8a-binding VHH (protein, part only; not given: CD8a-binding VHH and any linker or Fc, part only)
chain, part: APASSSTKKTQLQLEALLLDLQMILNGINNYKNPKLTRMLTFKFYMPKKATELKHLQCLERELKRLEEVLNLAQSKNFHLRPRYLISNINVIVLELKGSETTFMCEYADETATIVEFLNRWITFSQSIISTLT
For B3, in [5], the CD8a Targeted EC50, IL-2 reporter cells expressing CD8a (secreted alkaline phosphatase) worked out at 11 pM; the Non-targeted EC50, HEK-Blue IL-2 reporter cells lacking PD-1, NKp46 and CD8a (secreted alkaline phosphatase) amounted to 4520 pM.

B4: polypeptide comprising modified IL-2 (T3A, H16A, F42R, P65R, D84S, C125S) fused to the C-terminus of a PD-1-binding VHH (other, not shown: a dimerising Fc or GST; small tags and cut ends)
chain: APASSSTKKTQLQLEALLLDLQMILNGINNYKNPKLTRMLTRKFYMPKKATELKHLQCLEEELKRLEEVLNLAQSKNFHLRPRSLISNINVIVLELKGSETTFMCEYADETATIVEFLNRWITFSQSIISTLT
For B4, the “EC50 (nM), HEK-Blue IL-2 reporter cells lacking PD-1” value in test [1] worked out at 2.1 nM. Besides, the “EC50 (nM), IL-2 reporter cells expressing PD-1” value in [2] worked out at 0.003 nM.

B5: polypeptide comprising modified IL-2 (T3A, H16A, R38A, P65R, D84S, C125S) fused to the C-terminus of a PD-1-binding VHH (other, not shown: a dimerising Fc or GST; small tags and cut ends)
chain: APASSSTKKTQLQLEALLLDLQMILNGINNYKNPKLTAMLTFKFYMPKKATELKHLQCLEEELKRLEEVLNLAQSKNFHLRPRSLISNINVIVLELKGSETTFMCEYADETATIVEFLNRWITFSQSIISTLT
B5: in [3], the PD-1 Targeted EC50 is 2 pM and the PD-1 Window is 978. The Non-targeted EC50 in test [4] was determined as 1970 pM. The “EC50 (nM), HEK-Blue IL-2 reporter cells lacking PD-1” value in test [1] was 2 nM. Also, in the test with Histidine-tagged CD25, the binding result is given as “no binding (tested: 300 nM)”. In test [2], the “EC50 (nM), IL-2 reporter cells expressing PD-1” value came out at 0.002 nM.

B6: polypeptide comprising modified IL-2 (T3A, H16A, K43E, P65R, D84S, C125S) fused to the C-terminus of a PD-1-binding VHH (other, not shown: a dimerising Fc or GST; small tags and cut ends)
chain: APASSSTKKTQLQLEALLLDLQMILNGINNYKNPKLTRMLTFEFYMPKKATELKHLQCLEEELKRLEEVLNLAQSKNFHLRPRSLISNINVIVLELKGSETTFMCEYADETATIVEFLNRWITFSQSIISTLT
In the case of B6, the “EC50 (nM), HEK-Blue IL-2 reporter cells lacking PD-1” value in test [1] came to 1.1 nM. The binding result with Histidine-tagged CD25 was “no binding (tested: 300 nM)”. The “EC50 (nM), IL-2 reporter cells expressing PD-1” value in test [2] is 0.001 nM.

B7: polypeptide comprising modified IL-2 (T3A, H16A, K43E, Y45R, P65R, D84S, C125S) fused to the C-terminus of a PD-1-binding VHH (other, not shown: a dimerising Fc or GST; small tags and cut ends)
chain: APASSSTKKTQLQLEALLLDLQMILNGINNYKNPKLTRMLTFEFRMPKKATELKHLQCLEEELKRLEEVLNLAQSKNFHLRPRSLISNINVIVLELKGSETTFMCEYADETATIVEFLNRWITFSQSIISTLT
As to B7, the “EC50 (nM), HEK-Blue IL-2 reporter cells lacking PD-1” value in test [1] is 1.5 nM. The binding result in the test with Histidine-tagged CD25 is recorded as “no binding (tested: 300 nM)”. Also, the “EC50 (nM), IL-2 reporter cells expressing PD-1” value in [2] amounted to 0.002 nM.

B8: polypeptide comprising modified IL-2 (T3A, H16A, P65R, D84S, C125S) fused to the C-terminus of a PD-1-binding VHH (other, not shown: a dimerising Fc or GST; small tags and cut ends)
chain: APASSSTKKTQLQLEALLLDLQMILNGINNYKNPKLTRMLTFKFYMPKKATELKHLQCLEEELKRLEEVLNLAQSKNFHLRPRSLISNINVIVLELKGSETTFMCEYADETATIVEFLNRWITFSQSIISTLT
B8: the “EC50 (nM), HEK-Blue IL-2 reporter cells lacking PD-1” value in test [6] and in [1] was 0.9 nM throughout. For the same molecule, the “EC50 (nM), HEK-Blue IL-2 + PD-1” value in test [7] stood at 0.001 nM; in test [9], 0.001 nM; in [11], 0.003 nM; in [14], 0.003 nM; in test [16], 0.001 nM. In addition, the “EC50 (nM), HEK-Blue IL-2” value turned out to be 0.512 nM in [8]; 0.512 nM in [10]; 0.3 nM in test [12]; 0.3 nM in test [15]; 0.512 nM in test [17]. The “EC50 (nM), IL-2 reporter cells expressing PD-1” value in test [13] and in [2] was 0.001 nM throughout.

B9: polypeptide comprising modified IL-2 (T3A, H16A, P65R, D84S, I114F, C125S) fused to the C-terminus of a PD-1-binding VHH (other, not shown: a dimerising Fc or GST; small tags and cut ends)
chain: APASSSTKKTQLQLEALLLDLQMILNGINNYKNPKLTRMLTFKFYMPKKATELKHLQCLEEELKRLEEVLNLAQSKNFHLRPRSLISNINVIVLELKGSETTFMCEYADETATFVEFLNRWITFSQSIISTLT
Take B9: the “EC50 (nM), HEK-Blue IL-2 reporter cells lacking PD-1” value in test [1] amounted to 1.4 nM. Moreover, the binding result with Histidine-tagged CD25 was “no binding (tested: 300 nM)”. Besides, the “EC50 (nM), IL-2 reporter cells expressing PD-1” value in test [2] was 0.002 nM.
